The values below come from patent publication US7326418B2, “Identification of novel factors that block programmed cell death or apoptosis by targeting JNK” (University of Chicago, priority 2001, dated 2008).

In one data set the target is T1, JNKK1/MKK4 (Mus musculus, UniProt P47809).
T1 construct: expressed in transfected cells; host or cells: HEK-293; anti-FLAG immunoprecipitate
T1 sequence (P47809 2-397): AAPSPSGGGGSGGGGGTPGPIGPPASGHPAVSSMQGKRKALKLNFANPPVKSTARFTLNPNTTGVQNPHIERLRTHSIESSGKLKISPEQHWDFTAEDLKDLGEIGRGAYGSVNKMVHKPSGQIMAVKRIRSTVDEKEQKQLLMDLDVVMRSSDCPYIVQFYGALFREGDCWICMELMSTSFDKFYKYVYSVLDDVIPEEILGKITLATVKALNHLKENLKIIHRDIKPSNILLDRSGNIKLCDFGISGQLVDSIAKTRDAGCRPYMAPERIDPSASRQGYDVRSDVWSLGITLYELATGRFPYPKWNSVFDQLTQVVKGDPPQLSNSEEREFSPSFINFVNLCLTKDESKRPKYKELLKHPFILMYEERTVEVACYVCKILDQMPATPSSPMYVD
Nature of the data set: Kinase assay of immunoprecipitated FLAG-JNKK1/MKK4 with recombinant Gadd45β proteins. In kind it is biochemical. Particulars: in vitro, even at high concentrations. The method, then: (§1) Next, the functional consequences, in vitro, of the physical interactions of Gadd45β with kinases in the JNK pathway were assessed. Murine and human, full-length Gadd45J3 proteins were purified from E. coli as GST-Gadd45β and His6-tagged Gadd45β (His6 disclosed as SEQ ID NO: 46), respectively, according to standard procedures. Prior to employing these proteins in in vitro assays, purity of all recombinant polypeptides was assured by >98%, by performing Coomassie blue staining of SDS polyacrylamide gels. Then, the ability of these proteins, as well as of control GST and His6-EF3 (His6 disclosed as SEQ ID NO: 46)proteins, to inhibit kinases in the JNK pathways was monitored in vitro. FLAG-tagged JNKK2, JNKK1, MKK3, and ASK1 were immunoprecipitated from transiently transfected 293 cells using anti-FLAG antibodies and pre-incubated for 10 minutes with increasing concentrations of recombinant proteins, prior to the addition of specific kinase substrates (i.e. GST-JNK1 with JNKK1 and JNKK2; GST-p38[…] with MKK3; GST-JNNK1 or GST-JNKK2 with ASK1). […] These findings indicate that, upon binding to Gadd45β, JNKK2 is effectively inactivated.
(§2) A question was whether Gadd45β inhibited active MKK7, in vitro. FLAG-MKK7 was immunoprecipitated from TNFα-treated or untreated 293 cells, and kinase assays were performed in the presence of purified His6-Gadd45β (His6 disclosed as SEQ ID NO: 46), GST-Gadd45β, or control proteins (FIG. 28d; see also FIG. 28g). […] Consistent with the in vivo findings (FIG. 27), the inhibitory activity of Gadd45β was specific. […] Indeed, the effects of Gadd45β on MKK7 phosphorylation by TNFα may be due inhibition of the MKK7 ability to auto-phoshorylate and/or to serve as substrate for upstream kinases. Altogether, the findings identify MKK7 as a target of Gadd45β, and of NF-[…]B, in the JNK cascade. Of interest, MKK7 is a selective activator of JNK, and its ablation abolishes JNK activation by TNFα. Thus, blockade of MKK7 is sufficient on its own to explain the effects of Gadd45β on JNK signaling—i.e. its specific and near-complete suppression of this signaling. […]

The next data set has as its target T2, MKK3b (Homo sapiens, UniProt P46734).
T2 construct: expressed in transfected cells; host or cells: HEK-293; anti-FLAG immunoprecipitate
T2 sequence (P46734 1-347): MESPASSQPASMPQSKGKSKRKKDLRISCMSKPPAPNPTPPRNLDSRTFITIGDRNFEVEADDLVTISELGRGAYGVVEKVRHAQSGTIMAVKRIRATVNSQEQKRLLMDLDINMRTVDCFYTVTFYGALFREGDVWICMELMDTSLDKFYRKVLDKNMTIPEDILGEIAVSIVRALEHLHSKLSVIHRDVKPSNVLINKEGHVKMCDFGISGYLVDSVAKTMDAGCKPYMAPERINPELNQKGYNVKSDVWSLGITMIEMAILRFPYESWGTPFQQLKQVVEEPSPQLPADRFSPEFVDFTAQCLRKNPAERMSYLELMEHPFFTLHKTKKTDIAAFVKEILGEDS
Description: Kinase assay of immunoprecipitated FLAG-MKK3b with recombinant Gadd45β proteins. It counts as biochemical. Conditions: in vitro, even at high concentrations. The protocol: as §1, §2

B1: Gadd45β: purified recombinant His6-tagged Gadd45β protein; also used generically for the recombinant Gadd45β proteins (protein, UniProt O75293 1-160, looked up)
Growth arrest and DNA …: MTLEELVACDNAAQKMQTVTAAVEELLVAAQRQDRLTVGVYESAKLMNVDPDSVVLCLLAIDEEEEDDIALQIHFTLIQSFCCDNDINIVRVSGMQRLAQLLGEPAETQGTTEARDLHCLLVTNPHTDAWKSHGLVEVASYCEESRGNNQWVPYISLQER
modifications: His6 tag
notes: purified recombinant His6-tagged Gadd45β protein; also used generically for the recombinant Gadd45β proteins
For B1, in the data set with JNKK1/MKK4, the “effect on JNKK1/MKK4 kinase activity” value was “did not hamper”. For the same molecule, the “effect on MKK3/MKK3b kinase activity” value in the data set with MKK3b is on record as “did not hamper”.

B2: His6-Gadd45β: human full-length Gadd45β purified from E. coli as His6-tagged protein (protein, UniProt O75293 1-160, looked up)
chain: MTLEELVACDNAAQKMQTVTAAVEELLVAAQRQDRLTVGVYESAKLMNVDPDSVVLCLLAIDEEEEDDIALQIHFTLIQSFCCDNDINIVRVSGMQRLAQLLGEPAETQGTTEARDLHCLLVTNPHTDAWKSHGLVEVASYCEESRGNNQWVPYISLQER
modifications: full-length His6 tag
notes: human full-length Gadd45β purified from E. coli as His6-tagged protein
B2: the “effect on JNKK1/MKK4 kinase activity” value with JNKK1/MKK4 was “neither GST-Gadd45β nor His6-Gadd45β (His6 disclosed as SEQ ID NO: 46) had significant effects”. Besides, the “effect on MKK3/MKK3b kinase activity” value with MKK3b is listed as “neither GST-Gadd45β nor His6-Gadd45β (His6 disclosed as SEQ ID NO: 46) had significant effects”.

B3: GST-Gadd45β: full-length murine Gadd45β directly fused to GST, purified from E. coli (protein)
chain: MTLEELVASDNAVQKMQAVTAAVEQLLVAAQRQDRLTVGVYEAAKLMNVDPDSVVLCLLAIDEEEEDDIALQIHFTLIQSFCCDNDIDIVRVSGMQRLAQLLGEPAETLGTTEARDLHCLLVTNCHTDSWKSQGLVEVASYCEESRGNNQWVPYISLEER
modifications: left off: a dimerising Fc or GST
notes: full-length murine Gadd45β directly fused to GST, purified from E. coli
Take B3: in the data set with JNKK1/MKK4, the “effect on JNKK1/MKK4 kinase activity” value is given as “neither GST-Gadd45β nor His6-Gadd45β (His6 disclosed as SEQ ID NO: 46) had significant effects”. Moreover, the “effect on MKK3/MKK3b kinase activity” value in the data set with MKK3b was “neither GST-Gadd45β nor His6-Gadd45β (His6 disclosed as SEQ ID NO: 46) had significant effects”.
